Substrate in the data set: O=[N+]([O-])c1ccc(O[C@@H]2O[C@H](CO)[C@@H](O)[C@H](O)[C@H]2O)cc1
Kind of data set: purified protein. The note with it: 5 min, pNPG 0.5-5.0 mg/ml.

The mark [1] stands for this setting: optimal pH 6.0 and temperature 50°C, pH 6.0, 50.0 °C.
Setting [2] is: optimal pH (6.0) and temperature.

Two proteins from paper PMC6305311 can be followed below.

By Km is commonly meant the substrate concentration at which the rate is half of its maximum. In general, Vmax refers to the rate approached at saturating substrate. As a reminder, the kcat is the number of substrate molecules converted per active site and unit of time at saturation.

B1: AaBGL2 (Thermomonospora amylolytica) (protein)
chain: MTAHETQAQIREPATAPFPQDFRWGAATSAYQIEGAVAEDGRGRSIWDTFCDTPGAVLGGDTAAEAVDHYHRYREDVALMAGLGLNAYRFSLSWPRIQPSGTGPADQRGLDFYRRLVDELLEAGIEPWITLYHWDLPQALEDKGGWPERDTALRFAEFAALAHGALGDRVSNWMTINEPWCAAYLGYASGEHAPGRREPAAALEAAHHLLLGHGLAVEAMRGQRSGARIGPAVNLYAVSPAADTPEDLDAARRIDGLQNRFFLDALLLGRYPDDLLEDLAPFGFADCVRDGDMRVVGVRNDLLGINYYTRHTVSGRPGDATQAVSSPFSTVSPWVGSEHVRFVGQGKPVTGMGWEVDPDGLLEVLARLHREYPAVPLYITENGAGYDDVLDADDAVRDDERIAYLDAHLRVCARAIDAGIPLRGYFTWSLMDNFEWAWGYSKRFGLVYVDYATQRRIPKASARWYARTIRRGGLPD
For B1, under setting [1], the Michaelis constant (Km) is 730 µM, the Vmax stood at 1.9 µmol/min/mg and the kcat amounted to 1.7 s⁻¹.

B2: AaBGL1 (Thermomonospora amylolytica) (protein)
chain: MNLPADFLFGAATSAYQIEGAPAADGRLPSIWDDFCRVPGAIAGGDTGDVACDHYHRWREDVALMRRLGLDAYRFSVAWPRVVPRGTGEVNRPGLDFYDRLVDALLAAGIRPFVTLYHWDLPSALQERGGWPSRDTAAHFADYAAVVAARLGDRVTDWTTLNEPLCTAWIGHLEGRFAPGVRDLRQAVHASHHLLLAHGLGAAAIRANASAPPSIGLVNNLSPIQAASDRPEDVRAAIRADGHVNRWWLDPAHGRGYPADMIEVYGVEPPVRDGDLETIAAPVEYVGLNYYFRQIVADDPDGPAPYARQVPVPGAQTTAMGWEVHADGLAELLLRLSEDYTAPRIYVTESGSAWDDKVGADGSINDQDRIAYLEDHLAAVARAAEAGAPVQGYFVWSLLDNFEWADGLDKRFGLVHVDYATQQRTVKASGHRYAEIIRAHRGAP
Take B2: under setting [2], the Michaelis-Menten constant (Km) turned out to be 3300 µM, the maximum rate (Vmax) was determined as 6.8 µmol/min/mg and the kcat worked out at 5.5 s⁻¹.
